Experimental data: FireProtDB (doi:10.1021/bi00197a024)
Values joined by “and” are separate entries in the source; they are usually repeats but may differ in a detail not shown here. Equal entries are not always repeated.

Conditions: Saccharomyces cerevisiae (strain ATCC 204508 / S288c), Thermal, DSC, reversible: yes, whole UniProt chain shown

B1: Cytochrome c mitochondrial import factor CYC2 wild type, P38909 (protein)
chain: MLWKNYVLSSSRITRRLHKSPRKSSFSKNFFITGCLLTVGAVSSYLTYRYTSERENKHELSPSYFVKYKISHKRDIDSSHFLLEVTPLFKQKVNIWSLMTAENLWSVEIKQPEVMVVRNYTPLPLKFNPASKEIEILKDGDNADGKLSFYIKKYENGEVARWLHHLPKGHIIEIRGPFIDYEFPHLPNELKRSRDCLYMDNRNERGNNVRENSQFIYQPYDIMMFTAGTGIVTALQLLLTESPFRGTIKLFHTDKNIKQLGPLYPILLRLQASNRVQLKIFETDRQTKQDVLKSIQKSITKPYPYKGLLPFSNVNNKNIMPVLALVCGPESYISSISGRKYDLNQGPVGGLLSKEGWNSDNVYKLS
- Tm (pH 3.5, Sodium acetate 0.1 M): 39 °C
- unfolding enthalpy (calorimetric) (pH 3.5, Sodium acetate 0.1 M): 225 kJ/mol
- unfolding enthalpy (van 't Hoff) (pH 3.5, Sodium acetate 0.1 M): 283 kJ/mol
- Tm (pH 4, Sodium acetate 0.1 M): 43.7 °C
- unfolding enthalpy (calorimetric) (pH 4, Sodium acetate 0.1 M): 262 kJ/mol
- unfolding enthalpy (van 't Hoff) (pH 4, Sodium acetate 0.1 M): 318 kJ/mol
- Tm (pH 5, Sodium phosphate 0.1 M): 54.9 °C and 53.1 °C
- unfolding enthalpy (calorimetric) (pH 5, Sodium phosphate 0.1 M): 307 kJ/mol and 298 kJ/mol
- unfolding enthalpy (van 't Hoff) (pH 5, Sodium phosphate 0.1 M): 390 kJ/mol and 389 kJ/mol
- Tm (pH 6, Sodium phosphate 0.1 M): 54.5 °C
- unfolding enthalpy (calorimetric) (pH 6, Sodium phosphate 0.1 M): 282 kJ/mol
- unfolding enthalpy (van 't Hoff) (pH 6, Sodium phosphate 0.1 M): 384 kJ/mol
